The RNAGym collection of RNA variant scans (doi:10.1073/pnas.2313332121)

B1: TPR t1 (parent)
chain: GACCAAUCUGCCCUCAGAGCUCGAGAACAUCUUCGGAUGCAGAGGAGGCAGGCUUCGGUGGCGCGAUAGCGCCAACGUCCUCAACCUCCAAUGCAUCCCACCACAUGAUGAUGCCUGAAGAGCCUUGGUUUUUUG

Variants of: B1
Test: polymerase ribozyme fitness, log enrichment relative to wild type (log ratio); higher = more active; in vitro selection for triplet polymerase activity
How it was run: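 Fitness compares each genotype's enrichment to that of the wild type on a logarithmic scale, averaging replicates with inverse-variance weights. The logarithm is base 2. Enrichment came from Illumina sequencing of input and output libraries after one triplicate round of in vitro selection, which included frozen incubation at −7 °C, of PCR-built, transcribed mutant libraries of each subunit of a heterodimeric triplet polymerase ribozyme. Only genotypes with ≥10 input reads and ≥1 read per output were kept.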

Row | Variant | polymerase ribozyme fitness (log ratio)
1 | G10U C72A C124G | 1
2 | U9G C13A U59A | -0.0719
3 | C12U G61A C73A C88A | -1.6
4 | G10U A41C A91U G120C U129C | -1.99
5 | C12A A37U U78C C82U A108G | -3.38
6 | U106A U125G | -0.507
7 | C12U G52U A68G A74G | -3.85
8 | A2C C3G A90G | -3.04
9 | U9A G107A | -4.08
10 | G61U G120C U125A | 0.559
11 | A50C C62A C98A A111U U112A | -6.58
12 | C13G C64U C73A G120A A121U | -0.317
13 | G63U U78G G107U A111U U116C | -6
14 | C8G A16U | 0.648
15 | C20U G36A G122A G127C G135U | -5.15
16 | G69A U78C | -2.5
17 | C8G G10A A18G G65C U116G G117A | -5.46
18 | A6U G39U C53G A68G U96G | -7.34
19 | C12U A18C C70U A75U U125G | -5.05
20 | A26U C123A | -2.9
21 | G35U G120U | -5.06
22 | C20A C82U U87G C102A | -4.69
23 | U38G G113U U125G | -3.75
24 | C8G U33G C99A C101A | -5.4

Row | Variant | polymerase ribozyme fitness (log ratio)
25 | C12A C40U | -1.32
26 | C15A A27G G39A G44A G69U G71U C82U C88U C102U | -6.86
27 | A37C G51C | -4.02
28 | C89A | -1.27
29 | U55G C56G U78A C99U U131A | -4.29
30 | G25A C70U | -5.76
31 | A18U U21G C79G G93C G107C A108U C123G C124U | -7.63
32 | C49A | -0.241
33 | C49G G113U | -2.52
34 | G48C C56A C97A C104U U112G | -6.59
35 | C13G C72G C102G G113A G128A | -5.75
36 | A43U G45A C56A | -1.86
37 | C4U C8A C123G | 0.914
38 | C4G A50U C72G | -3.42
39 | C79G U109A | -7.49
40 | C40G C56A C86U | -1.71
41 | C11G C70G U116A U129C | -6.8
42 | C12U G19C | -1.79
43 | A74U U112A G113C A118C | -3.21
44 | A43U U78C | -1.53
45 | G48C C64G C124U | -5.87
46 | C11G A105U U112A A119G G120A G122A | -0.827
47 | C4G U9G G10C | -0.357
48 | G52C U81A U130A | -2.3

Row | Variant | polymerase ribozyme fitness (log ratio)
49 | C20A G60U U92C A121C | -2.4
50 | C3A C34A G45C C114U | -6.33
51 | C49G U112G | 0.00648
52 | G39A A43U G63U C86G | -4.39
53 | A119U C124A | 1.28
54 | C4A C12G G117A G128C | -1.61
55 | A6G A46C G48U G52U A95C | -5.42
56 | G36U C73U C114G C115G A119C G127U | -6.83
57 | C49G A91U C115A G128C U131A | -6.98
58 | A41U C123G G135U | 0.204
59 | C13U A50U G77C | -1
60 | C15U G117U | -3.29
61 | C49U U130C | 0.0143
62 | G42C U78A C85U C123G G135U | -2.89
63 | A119G U132A | 1.24
64 | A5G C8U A121C | 1.12
65 | C11G U55A U59G U106G G117C | -4.89
66 | U7G G65U C72U C73U U112G | -6.23
67 | A29G G47A G51U C123G U129A U133G | -5.68
68 | U67C G93U | -5.03
69 | C12G C64G C123G | -6.23
70 | C72U G113A U126A | -2.61
71 | A29C G39C | -3.97
72 | C49U U109G | -5.61

Row | Variant | polymerase ribozyme fitness (log ratio)
73 | G42A G44C A46U G71U A111G G120A | -3.41
74 | U7G C123A | 1.97
75 | A5U C56U | -0.648
76 | C4U G47U U112C | -0.0324
77 | C98A C101U G110U G120U C123G U130G | -5.9
78 | A2G U32C C40G C49A A68G C73U | -5.24
79 | C4G A5U C8U C101G C104U | -3.99
80 | G77C C86U A90C U125A | -1.83
81 | C22G U87G G113U A119G G127C | -4.58
82 | G48C G127C | -1.62
83 | G69C C72U U92C C101U G117U | -5.11
84 | U81A U92A A118G | -5.64
85 | U9G A43G C49A U81A G127U U133G | -2.11
86 | C123A U132A | 1.54
87 | G42A U126G | -3.7
88 | C34A C88U | -2.2
89 | C70G U78G A119G | -1.17
90 | C11G C49G A90U C124G U129C | -2.5
91 | G42U U125A | -1.61
92 | A74G A119G | 0.969
93 | G120C C123A | 0.937
94 | C8U A91U U130A | -1.26
95 | U21G G120U C123A | -1.07
96 | C12G G23A G71C C123G U129A | -7.78

Row | Variant | polymerase ribozyme fitness (log ratio)
97 | A27U U96A | -4.07
98 | A43C A68G U109A G117U | -6.95
99 | G60A U87A A119G U125C | -0.987
100 | C72U U78C C82G C101A A121C | -0.0659
101 | C11G C15A U59A C73A U125A | -1.02
102 | C80A G113A | -3.03
103 | C94G C102U | -3.04
104 | C72A C102A U129A | -2.3
105 | A5U U7A A91G C114A | -1.75
106 | G19U G71U A84U | -4.08
107 | C12U C40G C72G | -1.36
108 | C11A C53G G69U C72U | -1.37
109 | C115A G135U | -0.547
110 | C11A C49U C94G | -2.46
111 | U7G A26G C34U G113A | -4.39
112 | C49A G57A | -1.5
113 | U54G G63C C70U | -1.73
114 | C15A A37C C49A C72G | -2.75
115 | C11U C15A C56G G69U | -2.64
116 | G63C A105U | -2.44
117 | G44C C88A U109A | -5.8
118 | G42A G61C | -3.18
119 | C13U C56U A121C U130G | 1.59
120 | U7G G39A G58A G69C C97U | -1.38

Row | Variant | polymerase ribozyme fitness (log ratio)
121 | C72U C101A C115A C123A | -3.06
122 | G110C A119U | -1.71
123 | C15A G57U A91G C123A | -3.21
124 | G48C C49A A50G G52C C53U C86G C94U C114A | -3.63
125 | G10U C76A G127C | -2.18
126 | C20G C34A A41G C53A G69C G120C | -6.31
127 | A6U C13A U21C G69A C82A | -2.61
128 | G48A A100U C101U G117A C123A | -3.72
129 | C4A A119C G120A G127U | -0.47
130 | U9G C12G A91C G127C U129A | -2.32
131 | C40G G45A | -2.11
132 | G39A G61A C85U | -0.757
133 | A41G G47A C76A C101U | -3.57
134 | C11G C64U C98G U106C | -6.08
135 | C62A C123U | 0.181
136 | U7C G23U A29G G60U G117A G128U | -6.24
137 | C4A G39C A75G C114G G120A | -5.14
138 | U38G A50G U81C G113A | -1.89
139 | C88G U116G | -3.52
140 | C4U C8G C53U | 0.711
141 | A43G G69C A90C | -2.1
142 | G17A G61A C64U C73U A75C | -4.03
143 | C70U U81A U116G U125A | -5.57
144 | A105C G110U | -3.75

Row | Variant | polymerase ribozyme fitness (log ratio)
145 | C11G G47A C88A G127C | -2.42
146 | A90U | -1.2
147 | U9G U32A C62G U92G G117C | -5.56
148 | C28U A46U C94G | -4.44
149 | C80U A119G | 0.683
150 | G63U C82U | -1.76
151 | A46U A66G C123A | -2.03
152 | C11G A18U C86U C124U | -0.586
153 | G35U C64U | -5.09
154 | U9C C40U C62G G117C | -5.48
155 | C115A C123G | 1.01
156 | G25C U32A G42C G45A G51C A111U | -8.24
157 | C8A G23A A66G G69U C104U A118G | -5.28
158 | C53U C72A | 0.143
159 | G42U A68C G107C C114U G128C U133G | -6.38
160 | A37U G47C C56G C104A | -3.66
161 | C123U | 1.07
162 | C62G G128A | -2.8
163 | G120A U126C | -0.356
164 | C13U G39A | -0.593
165 | C3A G10U | -1.63
166 | C70U G107A | -5.06
167 | C101A A111C | -0.305
